The results in this text go back to US20200291444A1, “Macrocyclisation Tags” (Oxford University Innovation LTD, priority 2017, published 2020).

The subject of data set [1] is CC[C@H](C)[C@H](N)C(=O)N[C@@H](Cc1c[nH]c2ccccc12)C(=O)NCC(=O)N[C@H](C(=O)NCC(=O)N[C@@H](CS)C(=O)N[C@@H](CC(N)=O)C(=O)N1CCC[C@H]1C(=O)N[C@@H](Cc1c[nH]c2ccccc12)C(=O)N[C@H](C(=O)N[C@@H](C)C(=O)N[C@@H](CCC(=O)O)C(=O)N[C@@H](Cc1c[nH]cn1)C(=O)N[C@H](C(=O)N[C@@H](CC(=O)O)C(=O)N[C@@H](CCC(N)=O)C(=O)N[C@H](C(=O)N[C@@H](CC(C)C)C(=O)N[C@@H](C)C(=O)N[C@@H](CO)C(=O)NCC(=O)N[C@@H](CC(N)=O)C(=O)N[C@@H](CC(=O)O)C(=O)N[C@H](C(=O)N[C@@H](CS)C(=O)O)[C@@H](C)CC)[C@@H](C)O)C(C)C)[C@@H](C)O)[C@@H](C)CC. Put plainly: GmPOPB kinetic assays (LC-MS). It is filed as biochemical, Galerina marginata. As to conditions: other: room temperature; pH 8.0. On the procedure:
Comparison between distinct GmPOPB substrates was performed in 50 mM Tris pH 8.0, 50 mM NaCl, 10 mM DTT with varying concentrations of substrates at room temperature. All reactions were performed in duplicates. Reactions were started by adding GmPOPB (50 nM for GmAMA1_C6S, 1 μM for the 13mer and 14mer, and 20 nM for other substrates) to the assay mixture containing buffer and peptide. Reactions were quenched at several time points by adding 50 μL reaction mixture to 20 μL 6% TFA. Reactants were separated from products for quantification by injecting 50 μL of each quenched time point mix onto a ZORBAX SB-C18, 5 μm, 9.4×50 mm (Agilent) column connected to an Agilent LC-MS (G6130B Single Quad, Agilent Technologies). Reactants were separated from products using a gradient from H2O containing 0.1% TFA or 0.1% formic acid and 5% acetonitrile to 50% acetonitrile, at 1.5 ml/min for 8 min. Peaks with ultra violet (UV) absorbance at 220 and 280 nm were integrated, the area of peaks corresponding to reactant and products was used to calculate the percentage of product formed after a correction for differences in the extinction coefficient of each peptide was applied (ε280-25mer=11,000M-1 cm-1, ε220-25mer=46,000M-1 cm-1, ε280-cyclic=5500M-1 cm-1, ε220-cyclic=34,000M-1 cm-1, and ε280-tail=5500M-1 cm-1). The sum of product+substrate was assumed equal to the total initial amount of substrate, product converted from % to concentration. This value was divided by concentration of enzyme present to yield v/Et (min-1). When enzyme mutants and peptides containing alanine in the core region were tested for activity, higher concentrations 5 μM enzyme and 100 μM substrate were incubated for 1 and 18 h at room temperature. For progress curves with the 35mer substrate, measurements were triplicate and quantification relied on ion counts from mass spectrometry. […] Authentic macrocyclic peptide was quantified by UV absorbance. Data showing products formed after 1 and 16 h with truncated peptides were performed twice. […] Kinetic data were fitted to a Michaelis-Menten equation using GraphPad Prism, and values reported are average and standard error of the mean.

A further data set deals with T1, presegetalin B1.
T1 chain: GVAWAFQAKDVENASAPV

For orientation: Km means the concentration of substrate that gives half-maximal velocity. As usually defined, the kcat is the maximal rate divided by the concentration of active sites. As for GmPOPB (Galerina marginata CBS 339.88), in data set [1], the Km is 50 µM and the kcat came out at 0.3 s⁻¹.

B1: PCY1 (Saponaria vaccaria), wild type (protein)
chain: MATSGFSKPLHYPPVRRDETVVDDYFGVKVADPYRWLEDPNSEETKEFVDNQEKLANSVLEECELIDKFKQKIIDFVNFPRCGVPFRRANKYFHFYNSGLQAQNVFQMQDDLDGKPEVLYDPNLREGGRSGLSLYSVSEDAKYFAFGIHSGLTEWVTIKILKTEDRSYLPDTLEWVKFSPAIWTHDNKGFFYCPYPPLKEGEDHMTRSAVNQEARYHFLGTDQSEDILLWRDLENPAHHLKCQITDDGKYFLLYILDGCDDANKVYCLDLTKLPNGLESFRGREDSAPFMKLIDSFDASYTAIANDGSVFTFQTNKDAPRKKLVRVDLNNPSVWTDLVPESKKDLLESAHAVNENQLILRYLSDVKHVLEIRDLESGALQHRLPIDIGSVDGITARRRDSVVFFKFTSILTPGIVYQCDLKNDPTQLKIFRESVVPDFDRSEFEVKQVFVPSKDGTKIPIFIAARKGISLDGSHPCEMHGYGGFGINMMPTFSASRIVFLKHLGGVFCLANIRGGGEYGEEWHKAGFRDKKQNVFDDFISAAEYLISSGYTKARRVAIEGGSNGGLLVAACINQRPDLFGCAEANCGVMDMLRFHKFTLGYLWTGDYGCSDKEEEFKWLIKYSPIHNVRRPWEQPGNEETQYPATMILTADHDDRVVPLHSFKLLATMQHVLCTSLEDSPQKNPIIARIQRKAAHYGRATMTQIAEVADRYGFMAKALEAPWID
As to B1, in the data set with presegetalin B1, the Km (column head printed as 'Kin (µM)'), single injection kinetic ITC was 0.25 µM and the Km (column head printed as 'Kin (µM)'), steady-state kinetics, LC/MS (UV280 nM) turned out to be 0.45 µM.
